# The supplement of paper PMC9170038
# System: K4 kissing-loop RNA reporter
# Assay: apparent KD of K4 kissing-loop reporter; higher = weaker reporter binding
# Conditions: Eterna round: R107; input ligand: arginine 13.2 mM
# Protocol: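 RNA-MaP round R107: designed RNA switches with theophylline, tryptophan, arginine or FMN aptamers are transcribed on-chip within common flanks. They are titrated with a labelled K4 kissing-loop RNA reporter in RNA-MaP buffer (100 mM Tris pH 7.5, 80 mM KCl, 4 mM MgCl2), without ligand or with the indicated ligand. Median apparent KD per design.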
# 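Note: bound reporter read as fluorescence of individual clusters on recovered sequencing chips by microscopy, with normalized cluster intensities fitted with a binding model.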
row,Sequence,apparent KD of K4 kissing-loop reporter
1,GGCUUAUUCUAUGAUACCAGCGUCACAUCGGGACUGCGCACGCAGCAGGCGAGUGAUGUUCGCCCUUGGCAGCAUCUCGGCGACU [theeternabot_exclusion_KL_Theo_B_26],230 nM
2,UUUUUGGAGAAUUAUAGUGAUGUUAUGAAGAAGGAUAUCUAAAGAUGGAGAAGGUUUAAUAGUUAAGGGAUGGAGGGUGGGUGGG [ExFMNA.P],155 nM
3,GUAGCACUUGAUAGUGAUGUUAUCAAGGACAAGGAUAUCAUCUCAAUGAGAAGGUGUCCUUGAUAACAGCUACGGGAAUAUCCCA [Omei KL FMN A Exc D v1],267 nM
4,ACACUUUACGUAGGAUAUGCGACGAGUGAUGUUCGUCAGGCGGCUUUAGCUUAAUCAGGCCGCCUAGCAGAAGGACGGGCAGUGU [Zaretiesre],149 nM
5,AAAAUAAAUCAGUGAUGUUGGUAUCCGGAUACCAGCGAUAAUCAUCGCCCUUGGCAGCCGUGGACGUACAAAAUAAGUACGUCCU [MatMod 16 - Jieux - Same State - Theophylline A],104 nM
6,UAGGAGUGAUGUUCCUAUAGCAGGUAGGAAGGAGCGCCCAUUUGGGCAGGUAGGUCGCCUACCGGCCCUAAGUUAAACCUUAGGC [Rariar],111 nM

# Same assay, conditions: Eterna round: R107; input ligand: none
row,Sequence,apparent KD of K4 kissing-loop reporter
1,UGUGAACAAAAGUAGAGUGGACCACUAUAGCGAGGACCGGUACGGCCGCCACUCGUACAUGUAUUCAGUGAUGUUGAAAUGAGCU [whbob_EX_Tryp_A_t15],268 nM
2,GUCCCGAGUGAUGUUCGGGUCGUUUGGGAAGGAGCGCCCGGAAGGGCAGGUAGGUCGCCCGGACCCUGCAGGUAACUGUUGGGCC [#2 Same State - Arginine A Attempt #19 (HarryS)],210 nM
3,UUUGGUUUCUCGGCCGCCACUCGUGGGAAAUGGGCCUCAGGGAUAUAGUGAUGUUAUGUAAAGAAGAGGACCGGGAGAAGGAAGG [ExTryptoB.Dl],306 nM
4,AAACGCUGUGAAUAACACAGCGAAAAUUCGCGAGGACCGGUACGGCCGCCACUCGCUAACUGCGAGUGAUGUUCGAUAAUAAAAU [Mat - Mod of OpenEnded 3 - D11],198 nM
5,CCGGCCCGGCCGGAUACCAGUGCGCCGCUGGGAACUGCGGGCCCAGAGUGAUGUUCGGGACACCCUUGGCAGCCGCCUGGGUCGC [#2 Same State - Theophylline B Attempt #25 (HarryS)],562 nM
6,ACGUGCACUAGUGAUGUUAGAAAAUACGAAGGAGCGGGCGAAAGCCCAGGUAGGUCGCGUAAUAGCACGAGCCACGAAAGUGGCA,325 nM
7,UAUCUUUACUGAAGGAGCGAGCAUUUUGGAGUGAUGUUCCGAGCGAGUGAUGUUCGCAUAGCUCAGGUAGGUCGCAGUGGGAAAA [Same State Arginie B GF 15],143 nM
8,UCGAGUUGACGAAAAGUCAACUCGUGAGAUACCAGUGACGAAAGUCACCCUUGGCAGCUCACUGCCAGUGAUGUUGGUGUAUAGA [#06 K4 Theophylline A Same State],1030 nM
9,GAUUUAGAGGCGGCCGCCACUAGUGAUGUUAGUGAUGUUUGAUACUGUAUAUAUCGGCGUGUAGAUAGGACCGGGCCUGAUGGAG [drrdmullin],266 nM
10,AAGUAGCUCUCGGCCGCCACUCCUCAGUGAUGUUGAGAUAUUAAUUGCCAAUUGGCGUAUUUAAAGAGGACCGGGAGAGCUACAA [AK3 SS Tryptophan B],378 nM
11,UCUUGAGUAUAUGAUACCAGCAGUGAGAGACAGGAAGUAUAGUGAUGUUAUAUGAGAGAAUGCCCUUGGCAGCGUGUGCGGUGGG [SSTheophylB.S],112 nM
12,AACUUGUUUGGAGGAUAUUCUUUAUUCGACAUAACCUUCUAUAAGGUGCAGUGAUGUUGCAAUAUAGGAGAAGGUCGAGUGAGAA [Exclusion FMN B Gf 16],206 nM
13,GUAGCACUUGACAGUGAUGUUGUCAAGGACAAGGAUAUCAUCUCAAUGAGAAGGUGUCCUUGAUAACAGCUACGGGAAUAUCCCA [Omei KL FMN A Exc D v3],136 nM
14,AAGUUGAACUGAAGGAGCGAGAAAUAGAAUGUAAGAAUAUAUGCUAGUGAUGUUAGAAAUUCUCAGGUAGGUCGCAGUAAGUUUU [V2],474 nM
15,UGAUACCAGACUGAUACCAGCGAGUGAUGUUUGCUGAAAUCAGGGUCAAAGACCCUGUCUCGCCCUUGGCAGCAGUCUGGUAUCU [TheoBX 21 #SwitchBubble #StaticStem],754 nM
16,AGAGCGGUCGAAGGAUAUGAGACAACCAACGGUGAGUGAUGUUUGCCGAGUAAACCUCUAGUUGCGUCAGAAGGUCGGCUCAGUC [theeternabot_sameState_KL_FMN_B_25],633 nM
17,AAAUUCUUUUUUUUAUUUAAGUUUUCAGAAGGAGCGUGGUAGUACACAGGUAGGUCGCUGAAUUUUGGGCUAGUGAUGUUAGUUA [whbob_SS_Arginine_A_sa114],200 nM
18,AAAACGCUGGAUGAAUAACAUCUAGCGAAUCGAGGACCGGUACGGCCGCCACUCGGAGCUAAACUGCGAGUGAUGUUCGUAAAAU [Mat - Mod of OpenEnded 3 - D18],588 nM
19,CGCGUAUCGGCAGGAUAUGGAGUUGAGUGAUGUUCAGCAAUGGGUCAUCAUCUUUAUGACAAUCCACCAGAAGGGCCGAUACGCG,1100 nM
20,GAAACGUUGCGGACUAUCGCAUAAAGUCACCGAGGACCGGUACGGCCGCCACUCGCCAGUGAUGUUGGCGUGUUUGCGCGCUGUG [Titebebi],95.4 nM
21,AAAUAUUCGAGUGAUGUUCGUUAAAUUACAGAGGAUAUGCUUAAAAGCAGAAGGCUGUAUUUCUAUUUGUUAUGUAAUUUUAAAA [JR_ExcFMNA_Sub004],157 nM
